We go through 19 molecules from the FLAb antibody collection (doi:10.1101/2023.12.08.570889).

The test deals with IL36R. As to the kind of experiment: Kd (SPR).

B1: unnamed (protein)
chain 1: QVQLVQSGAEVKKPGASVKVSCKASGYSFTSSWIHWVKQAPGQGLEWMGEINPGNVRTNYNENFRNKVTMTVDTSISTAYMELSRLRSDDTAVYYCTRVRFGEPYFDYWGQGTLVTVSS
chain 2: QIVLTQSPGTLSLSPGERATMTCTASSSVSSSYFHWYQQKPGQAPRLWIYRTSRLASGVPDRFSGSGSGTDFTLTISRLEPEDAATYYCHQFHRSPLTFGAGTKLEIK
The Kd is a measure of binding affinity in units of concentration. The low end stands for tighter binding, the high end for weaker binding. The molecule B1 gave a Kd of 3.28 nM.

B2: unnamed (protein)
chain 1: QVQLVQSGAEVKKPGASVKVSCKASGYSFTSSWIHWVKQAPGQGLEWMGEINPGNVRTNYNENFRNKVTMTVDTSISTAYMELSRLRSDDTAVYYCTRVSYGEPYFDYWGQGTLVTVSS
chain 2: QIVLTQSPGTLSLSPGERATMTCTASSSVSSSYFHWYQQKPGQAPRLWIYRTSRLASGVPDRFSGSGSGTDFTLTISRLEPEDAATYYCHQFHRSPLTFGAGTKLEIK
With B2, the Kd came to 0.759 nM.

B3: unnamed (protein)
chain 1: QVQLVQSGAEVKKPGASVKVSCKASGYSFTSSWIHWVKQAPGQGLEWMGEINPGNVRTNYNENFRNKVTMTVDTSISTAYMELSRLRSDDTAVYYCTRIRYGEPYFDYWGQGTLVTVSS
chain 2: QIVLTQSPGTLSLSPGERATMTCTASSSVSSSYFHWYQQKPGQAPRLWIYRTSRLASGVPDRFSGSGSGTDFTLTISRLEPEDAATYYCHQFHRSPLTFGAGTKLEIK
In the case of B3, the Kd was determined as 12.3 nM.

B4: unnamed (protein)
chain 1: QVQLVQSGAEVKKPGASVKVSCKASGYSFTSSWIHWVKQAPGQGLEWMGEINPGNVRTNYNENFRNKVTMTVDTSISTAYMELSRLRSDDTAVYYCTRVVFGEPYFDYWGQGTLVTVSS
chain 2: QIVLTQSPGTLSLSPGERATMTCTASSSVSSSYFHWYQQKPGQAPRLWIYRTSRLASGVPDRFSGSGSGTDFTLTISRLEPEDAATYYCHQFHRSPLTFGAGTKLEIK
B4: the Kd stood at 1.54 nM.

B5: unnamed (protein)
chain 1: QVQLVQSGAEVKKPGASVKVSCKASGYSFTSSWIHWVKQAPGQGLEWMGEINPGNVRTNYNENFRNKVTMTVDTSISTAYMELSRLRSDDTAVYYCTRQTYGEPYFDYWGQGTLVTVSS
chain 2: QIVLTQSPGTLSLSPGERATMTCTASSSVSSSYFHWYQQKPGQAPRLWIYRTSRLASGVPDRFSGSGSGTDFTLTISRLEPEDAATYYCHQFHRSPLTFGAGTKLEIK
For B5, the Kd worked out at 274 nM.

B6: unnamed (protein)
chain 1: QVQLVQSGAEVKKPGASVKVSCKASGYSFTSSWIHWVKQAPGQGLEWMGEINPGNVRTNYNENFRNKVTMTVDTSISTAYMELSRLRSDDTAVYYCTRVRYGYPWFDYWGQGTLVTVSS
chain 2: QIVLTQSPGTLSLSPGERATMTCTASSSVSSSYFHWYQQKPGQAPRLWIYRTSRLASGVPDRFSGSGSGTDFTLTISRLEPEDAATYYCHQFHRSPLTFGAGTKLEIK
In the case of B6, the Kd came to 1.04 nM.

B7: unnamed (protein)
chain 1: QVQLVQSGAEVKKPGASVKVSCKASGYSFTSSWIHWVKQAPGQGLEWMGEINPGNVRTNYNENFRNKVTMTVDTSISTAYMELSRLRSDDTAVYYCTRVSYGEPWFDYWGQGTLVTVSS
chain 2: QIVLTQSPGTLSLSPGERATMTCTASSSVSSSYFHWYQQKPGQAPRLWIYRTSRLASGVPDRFSGSGSGTDFTLTISRLEPEDAATYYCHQFHRSPLTFGAGTKLEIK
B7 gave a dissociation constant Kd of 1.4 nM.

B8: unnamed (protein)
chain 1: QVQLVQSGAEVKKPGASVKVSCKASGYSFTSSWIHWVKQAPGQGLEWMGEINPGNVRTNYNENFRNKVTMTVDTSISTAYMELSRLRSDDTAVYYCTRVSFGEPWFDYWGQGTLVTVSS
chain 2: QIVLTQSPGTLSLSPGERATMTCTASSSVSSSYFHWYQQKPGQAPRLWIYRTSRLASGVPDRFSGSGSGTDFTLTISRLEPEDAATYYCHQFHRSPLTFGAGTKLEIK
As for B8, the dissociation constant (Kd) came out at 7.07 nM.

B9: unnamed (protein)
chain 1: QVQLVQSGAEVKKPGASVKVSCKASGYSFTSSWIHWVKQAPGQGLEWMGEINPGNVRTNYNENFRNKVTMTVDTSISTAYMELSRLRSDDTAVYYCTRVFYGEPYFDYWGQGTLVTVSS
chain 2: QIVLTQSPGTLSLSPGERATMTCTASSSVSSSYFHWYQQKPGQAPRLWIYRTSRLASGVPDRFSGSGSGTDFTLTISRLEPEDAATYYCHQFHRSPLTFGAGTKLEIK
Molecule B9 displayed a Kd of 1.13 nM.

B10: unnamed (protein)
chain 1: QVQLVQSGAEVKKPGASVKVSCKASGYSFTSSWIHWVKQAPGQGLEWMGEINPGNVRTNYNENFRNKVTMTVDTSISTAYMELSRLRSDDTAVYYCTRVRFGYPWFDYWGQGTLVTVSS
chain 2: QIVLTQSPGTLSLSPGERATMTCTASSSVSSSYFHWYQQKPGQAPRLWIYRTSRLASGVPDRFSGSGSGTDFTLTISRLEPEDAATYYCHQFHRSPLTFGAGTKLEIK
B10: the dissociation constant (Kd) amounted to 0.689 nM.

B11: unnamed (protein)
chain 1: QVQLVQSGAEVKKPGASVKVSCKASGYSFTSSWIHWVKQAPGQGLEWMGEINPGNVRTNYNENFRNKVTMTVDTSISTAYMELSRLRSDDTAVYYCTRVSFGEPYFDYWGQGTLVTVSS
chain 2: QIVLTQSPGTLSLSPGERATMTCTASSSVSSSYFHWYQQKPGQAPRLWIYRTSRLASGVPDRFSGSGSGTDFTLTISRLEPEDAATYYCHQFHRSPLTFGAGTKLEIK
B11 yielded a Kd of 0.758 nM.

B12: unnamed (protein)
chain 1: QVQLVQSGAEVKKPGASVKVSCKASGYSFTSSWIHWVKQAPGQGLEWMGEINPGNVRTNYNENFRNKVTMTVDTSISTAYMELSRLRSDDTAVYYCTRVQYGYPYFDYWGQGTLVTVSS
chain 2: QIVLTQSPGTLSLSPGERATMTCTASSSVSSSYFHWYQQKPGQAPRLWIYRTSRLASGVPDRFSGSGSGTDFTLTISRLEPEDAATYYCHQFHRSPLTFGAGTKLEIK
Regarding B12, the Kd was found to be 1.87 nM.

B13: unnamed (protein)
chain 1: QVQLVQSGAEVKKPGASVKVSCKASGYSFTSSWIHWVKQAPGQGLEWMGEINPGNVRTNYNENFRNKVTMTVDTSISTAYMELSRLRSDDTAVYYCTTVRYGEPYFDYWGQGTLVTVSS
chain 2: QIVLTQSPGTLSLSPGERATMTCTASSSVSSSYFHWYQQKPGQAPRLWIYRTSRLASGVPDRFSGSGSGTDFTLTISRLEPEDAATYYCHQFHRSPLTFGAGTKLEIK
B13 yielded a dissociation constant Kd of 0.888 nM.

B14: unnamed (protein)
chain 1: QVQLVQSGAEVKKPGASVKVSCKASGYSFTSSWIHWVKQAPGQGLEWMGEINPGNVRTNYNENFRNKVTMTVDTSISTAYMELSRLRSDDTAVYYCTRVTYGEPYFDYWGQGTLVTVSS
chain 2: QIVLTQSPGTLSLSPGERATMTCTASSSVSSSYFHWYQQKPGQAPRLWIYRTSRLASGVPDRFSGSGSGTDFTLTISRLEPEDAATYYCHQFHRSPLTFGAGTKLEIK
B14: the dissociation constant (Kd) came to 0.991 nM.

B15: unnamed (protein)
chain 1: QVQLVQSGAEVKKPGASVKVSCKASGYSFTSSWIHWVKQAPGQGLEWMGEINPGNVRTNYNENFRNKVTMTVDTSISTAYMELSRLRSDDTAVYYCTRVRFGEPWFDYWGQGTLVTVSS
chain 2: QIVLTQSPGTLSLSPGERATMTCTASSSVSSSYFHWYQQKPGQAPRLWIYRTSRLASGVPDRFSGSGSGTDFTLTISRLEPEDAATYYCHQFHRSPLTFGAGTKLEIK
With B15, the dissociation constant Kd was 4.32 nM.

B16: unnamed (protein)
chain 1: QVQLVQSGAEVKKPGASVKVSCKASGYSFTSSWIHWVKQAPGQGLEWMGEINPGNVRTNYNENFRNKVTMTVDTSISTAYMELSRLRSDDTAVYYCTRSRYGEPYFDYWGQGTLVTVSS
chain 2: QIVLTQSPGTLSLSPGERATMTCTASSSVSSSYFHWYQQKPGQAPRLWIYRTSRLASGVPDRFSGSGSGTDFTLTISRLEPEDAATYYCHQFHRSPLTFGAGTKLEIK
Regarding B16, the Kd is 4.79 nM.

B17: unnamed (protein)
chain 1: QVQLVQSGAEVKKPGASVKVSCKASGYSFTSSWIHWVKQAPGQGLEWMGEINPGNVRTNYNENFRNKVTMTVDTSISTAYMELSRLRSDDTAVYYCTRVQFGEPYFDYWGQGTLVTVSS
chain 2: QIVLTQSPGTLSLSPGERATMTCTASSSVSSSYFHWYQQKPGQAPRLWIYRTSRLASGVPDRFSGSGSGTDFTLTISRLEPEDAATYYCHQFHRSPLTFGAGTKLEIK
B17 gave a Kd of 1.61 nM.

B18: unnamed (protein)
chain 1: QVQLVQSGAEVKKPGASVKVSCKASGYSFTSSWIHWVKQAPGQGLEWMGEINPGNVRTNYNENFRNKVTMTVDTSISTAYMELSRLRSDDTAVYYCTRVRYGEPWFDYWGQGTLVTVSS
chain 2: QIVLTQSPGTLSLSPGERATMTCTASSSVSSSYFHWYQQKPGQAPRLWIYRTSRLASGVPDRFSGSGSGTDFTLTISRLEPEDAATYYCHQFHRSPLTFGAGTKLEIK
Take B18: the dissociation constant (Kd) came to 0.888 nM.

B19: unnamed (protein)
chain 1: QVQLVQSGAEVKKPGASVKVSCKASGYSFTSSWIHWVKQAPGQGLEWMGEINPGNVRTNYNENFRNKVTMTVDTSISTAYMELSRLRSDDTAVYYCTRVMYGEPYFDYWGQGTLVTVSS
chain 2: QIVLTQSPGTLSLSPGERATMTCTASSSVSSSYFHWYQQKPGQAPRLWIYRTSRLASGVPDRFSGSGSGTDFTLTISRLEPEDAATYYCHQFHRSPLTFGAGTKLEIK
Take B19: the Kd came to 3.16 nM.
